Several values for one entry are separate records, joined by “and”; a condition that tells them apart may be missing. Equal values may be shown once.
Experiments:
human CD137 on cells [1] = target: T1, human CD137 on cells (human, UniProt Q07011 24-255); test: flow cytometry on CHO-human CD137 cells, PE anti-human IgG-Fc
T1 construct: whole, on cells; also called CHO-human CD137; CHO cells over-expressing human CD137
Experimental: (§1) CHO cells over-expressing human or cynomolgus monkey CD137 and CHO parental cells were harvested by centrifugation at 1000 g for 3 minutes. The cells were resuspended in ice cold assay buffer at 2*10\hat{ }6/mL and transferred to 96-well V-bottom plate with 100 μL/well. […] The plate was mixed and incubated in the dark for 2 hours at 4° C. The cells were washed 3 times by centrifugation at 1000 g for 3 min and resuspended in ice cold assay buffer containing goat F(ab′)₂ anti-human IgG-Fc (PE), 100 μL/well. The plate was incubated in the dark for another 1 hour at 4° C. The cells were washed 2 times by centrifugation at 1000 g for 3 min and resuspended in ice cold assay buffer containing 2% PFA. The cells were then subjected to the flow cytometer immediately.
(§2) Mean fluorescence intensity (MFI) was calculated from the total cell population in the FCM experiments. Graphpad 7.0, “[Agonist] vs. response—Variable slope (four parameters)” was used to plot the binding MFI in dose response and to calculate FCM binding EC₅₀ values.
Target sequence in this assay (Q07011 24-255): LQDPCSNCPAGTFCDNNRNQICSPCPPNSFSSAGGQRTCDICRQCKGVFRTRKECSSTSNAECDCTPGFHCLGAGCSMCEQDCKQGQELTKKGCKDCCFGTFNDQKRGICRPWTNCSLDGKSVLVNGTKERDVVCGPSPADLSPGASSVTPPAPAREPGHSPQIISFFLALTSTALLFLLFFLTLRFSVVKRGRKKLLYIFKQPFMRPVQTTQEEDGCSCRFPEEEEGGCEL

[2] = target: T2, human FcγRIIA-His131 on CHO-K1 cells (human, UniProt P12318 34-317); test: flow cytometry on CHO-huFcγRIIA-H131 cells, PE anti-human Fc F(ab')2
T2 construct: whole, on cells; Allotype His131; also called CHO-K1-huFcγRIIA-His131; CHO-huFcγRIIA-H131
T2 sequence (looked up): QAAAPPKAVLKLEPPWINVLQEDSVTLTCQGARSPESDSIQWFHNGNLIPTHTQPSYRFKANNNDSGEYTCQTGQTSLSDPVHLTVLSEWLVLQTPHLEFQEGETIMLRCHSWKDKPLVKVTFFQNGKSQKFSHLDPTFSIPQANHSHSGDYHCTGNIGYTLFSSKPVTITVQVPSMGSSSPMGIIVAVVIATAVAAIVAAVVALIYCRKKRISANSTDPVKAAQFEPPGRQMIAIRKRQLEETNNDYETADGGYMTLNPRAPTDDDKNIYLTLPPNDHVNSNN
Experimental: The plate was mixed and incubated in the dark for 2 hours at 4° C.

Ly049 = target: T3, Ly049; test: ELISA, CD137 protein coated, clone 3712 titrated; flat curve, fit marked ~ (see non_binding)
T3 chain: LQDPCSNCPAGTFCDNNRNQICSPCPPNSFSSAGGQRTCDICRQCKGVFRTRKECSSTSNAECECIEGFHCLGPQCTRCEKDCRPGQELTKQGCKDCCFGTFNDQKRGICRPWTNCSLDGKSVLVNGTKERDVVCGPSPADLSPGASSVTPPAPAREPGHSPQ
Experimental: (§3) For the data shown in FIGS. 16C-D, chimeric CD137 receptor protein samples were diluted in DPBS to 5 μg/mL and then coated onto an ELISA plate (Corning, Catalog number: 9018, high binding) at 50 μL (0.25 μg) per well, and incubated at 4° C. overnight. The plate was decanted and washed once; assay diluent was added at 200 μL/well. After a 1-hour incubation at room temperature, the plate was washed with PBST one time. […] The plate was incubated 1 hour at room temperature and then washed three times with PBST. Goat anti-human IgG-H+L HRP-conjugated at 1:100,000 dilution or goat anti-mouse IgG (H+L) secondary antibody, HRP, 10 at 1:50,000 dilution was added to the plate at 100 μL/well. The plate was incubated 1 hour at room temperature followed by washing with PBST four times. The TMB substrate solution was added 100 μL/well. The color was permitted to develop for 15 minutes and then 100 μL/well 2N H2SO4 was added to terminate the reaction. Absorbance at 450 nm and 620 nm was determined by a Tecan F200 Pro reader.

Ly051 = target: T4, Ly051; test: as above
T4 chain: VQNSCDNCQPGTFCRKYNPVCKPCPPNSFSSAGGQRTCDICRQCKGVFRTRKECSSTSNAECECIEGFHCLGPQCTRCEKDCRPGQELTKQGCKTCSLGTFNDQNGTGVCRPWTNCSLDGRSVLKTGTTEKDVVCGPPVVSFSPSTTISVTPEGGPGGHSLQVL
Experimental: as §3

[3] = target: T5, recombinant human CD137 receptor protein (human, UniProt Q07011 24-186); test: ELISA, human CD137 protein coated; average, n=6
T5 construct: Coated on ELISA plates; also called recombinant human CD137 protein
Experimental: (§4) The human or cynomolgus monkey CD137 receptor protein was diluted in DPBS to 1 μg/mL, and then coated onto an ELISA plate (Corning, Catalog number: 9018, high binding) with a volume of 100 μL (0.1 μg) or 50 μL (0.05 μg) per well, and incubated at 4° C. overnight. The plate was decanted and washed once; assay diluent was added 200 μL/well. After a one-hour incubation at room temperature, the plate was washed with PBST one time. […] The plate was incubated one hour at room temperature and then washed three times with PBST. Goat anti-human IgG-H+L HRP conjugated at 1:100,000 dilution was added to the plate at 100 μL/well. The plate was then incubated one hour at room temperature followed by washing with PBST four times. The TMB substrate solution was added at 100 μL/well. The color was allowed to develop for 15 minutes, and was stopped with 100 μL/well 2N H₂SO₄. Absorbance at 450 nm and 620 nm was determined by a Tecan F200 Pro reader.
(§5) Graphpad 7.0, “[Agonist] vs. response—Variable slope (four parameters)” was used to plot the binding data and calculate binding EC₅₀ values.

[4] = target: T5, recombinant human CD137 receptor protein; test: ELISA, clone 3712-IgG1v coated, huCD137 titrated (EC50 is a concentration of the CD137 protein); full sigmoid, plateau about 1.9
Target sequence in this assay (Q07011 24-186 limits assumed): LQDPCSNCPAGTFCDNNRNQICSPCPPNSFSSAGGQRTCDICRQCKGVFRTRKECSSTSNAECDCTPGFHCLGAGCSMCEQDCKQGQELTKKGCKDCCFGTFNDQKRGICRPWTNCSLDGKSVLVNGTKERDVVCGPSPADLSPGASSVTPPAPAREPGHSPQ

[5] = target: T6, recombinant cynomolgus monkey CD137 receptor protein (cynomolgus monkey, UniProt A9YYE7 24-186); test: ELISA, recombinant cynomolgus CD137 protein coated, antibody titrated
T6 construct: Coated on ELISA plates; also called Cyno CD137
T6 sequence (A9YYE7 entry or part of it): as the sequence (Q07011 24-186 limits assumed) above, with P4L, N19S, R50K, T66I, P67S, F69Y, G75E, V149A counted along it
Experimental: as §4, §5

human CD137 on cells [6] = target: T1, human CD137 on cells; test: cell-based or functional assay
human CD137 on cells [7] = target: T1, human CD137 on cells; test: flow cytometry, cellular CD137; human CD137
Experimental: as §1, §2
Target sequence in this assay (Q07011 24-255): as the sequence (Q07011 24-255) above

EC50 (read off the curve) (human CD137 on cells [1]): ~0.05 µg/mL | binding result [2]: no binding (tested: 100 µg/mL) | EC50 (Ly049): ~0.903 µg/mL | EC50 (Ly051): ~0.00101 µg/mL | EC50 [3]: 0.37 nM and 0.0529 µg/mL | EC50 [4]: 0.0562 µg/mL | EC50 (read off the curve) [5]: ~0.05 µg/mL | IFN-γ secretion of human CD8+ T cells co-cultured with CHO-K1-huFcγRIIB cells and OKT3; average EC50, n=12 (human CD137 on cells [6]): 30.6 ng/mL and ~0.21 nM | IL-8 secretion of CD137 reporter cells (GS-H2-huCD137) co-cultured with CHO-K1-huFcγRIIB cells; average EC50, n=6 (human CD137 on cells [6]): 44.4 ng/mL and ~0.31 nM | EC50 (human CD137 on cells [7]): ~0.3 nM
B1: Clone 3712-IgG1v (IgG1v/kappa) (antibody)
heavy: QVQLVQSGAEVKKPGASVKVSCKASGYTFAGFEMHWVRQAPGQGLEWMGAIDPKTGGTDYNQKFKDRVTMTRDTSISTAYMELSRLRSDDTAVYYCARDLGYFDVWGQGTLVTVSSASTKGPSVFPLAPSSKSTSGGTAALGCLVKDYFPEPVTVSWNSGALTSGVHTFPAVLQSSGLYSLSSVVTVPSSSLGTQTYICNVNHKPSNTKVDKKVEPKSCDKTHTCPPCPAPELLGPSVFLFPPKPKDTLMISRTPEVTCVVVDVEHEDPEVKFNWYVDGVEVHNAKTKPREEQYNSTYRVVSVLTVLHQDWLNGKEYKCKVSNKALPAPIEKTISKAKGQPREPQVYTLPPSREEMTKNQVSLTCLVKGFYPSDIAVEWESNGQPENNYKTTPPVLDSDGSFFLYSKLTVDKSRWQQGNVFSCSVMHEALHNHYTQKSLSLSPGK
light: DIQMTQSPSSLSASVGDRVTITCRASQDIRSNLNWYQQKPGGAVKLLIYYTSRLHSGVPSRFSGSGSGTDYTLTISSLQPEDFATYFCQQSEKLPRTFGGGTKVEIRRTVAAPSVFIFPPSDEQLKSGTASVVCLLNNFYPREAKVQWKVDNALQSGNSQESVTEQDSKDSTYSLSSTLTLSKADYEKHKVYACEVTHQGLSSPVTKSFNRGEC
notes: copies: 2 + 2
